Measured values taken from patent US9587033.

B1: full length Tnk1 (72 kDa) (protein)
chain: MLPEAGSLWLLKLLRDIQLAQFYWPILEELNVTRPEHFDFVKPEDLDGIGMGRPAQRRLSEALKRLRSGPKSKNWVYKILGGFAPEHKEPTLPSDSPRHLPEPEGGLKCLIPEGAVCRGELLGSGCFGVVHRGLWTLPSGKSVPVAVKSLRVGPEGPMGTELGDFLREVSVMMNLEHPHVLRLHGLVLGQPLQMVMELAPLGSLHARLTAPAPTPPLLVALLCLFLRQLAGAMAYLGARGLVHRDLATRNLLLASPRTIKVADFGLVRPLGGARGRYVMGGPRPIPYAWCAPESLRHGAFSSASDVWMFGVTLWEMFSGGEEPWAGVPPYLILQRLEDRARLPRPPLCSRALYSLALRCWAPHPADRPSFSHLEGLLQEAGPSEACCVRDVTEPGALRMETGDPITVIEGSSSFHSPDSTIWKGQNGRTFKVGSFPASAVTLADAGGLPATRPVHRGTPARGDQHPGSIDGDRKKANLWDAPPARGQRRNMPLERMKGISRSLESVLSLGPRPTGGGSSPPEIRQARAVPQGPPGLPPRPPLSSSSPQPSQPSRERLPWPKRKPPHNHPMGMPGARKAAALSGGLLSDPELQRKIMEVELSVHGVTHQECQTALGATGGDVVSAIRNLKVDQLFHLSSRSRADCWRILEHYQWDLSAASRYVLARP

Columns and labels:
[1] = target: Grb2 (UniProt P62993)
[2] = target: Grb2, P62993
Sequence of Grb2, P62993 (P62993 whole entry, looked up): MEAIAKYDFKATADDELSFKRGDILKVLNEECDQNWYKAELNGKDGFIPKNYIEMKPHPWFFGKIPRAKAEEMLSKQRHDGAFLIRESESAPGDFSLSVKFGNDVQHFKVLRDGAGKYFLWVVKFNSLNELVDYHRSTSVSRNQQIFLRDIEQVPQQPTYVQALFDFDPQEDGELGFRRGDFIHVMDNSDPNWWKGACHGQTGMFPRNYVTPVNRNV

Molecule	in vitro PTK activity assay (Y-phosphorylation of Grb2) [1]	in vitro PTK activity assay (Y-phosphorylation of Grb2) [2]
60 kDa truncated Tnk1-C17ORF61 fusion protein (tTnk1)	The t-Tnk1 showed none or weak Y-phosphorylation of Grb2	–
B1	–	Tnk1 from T47D or K562 Y-phosphorylated Grb2
